Among the data in the NTF2 design screens of Basanta et al. (2020) are protease stability score values, retold here.

The nature of this data set: protease stability score; higher = more stable; yeast display proteolysis, trypsin and chymotrypsin.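 Note: relative to predicted unfolded state with 0 unfolded-like and 1 meaning tenfold more protease.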
Take “DEEKKLAHKIARILMDLFLTGNEEVWKELMDPHVKFEIGDFIDHGWEAVKRYYEVLGFDHIQETDLESIVIFENHVILHIRIHGEVNGRQVDTTVTLFIEKINGKWYIRTIRIH”: the protease stability score was determined as 2.5.

“DEEKKLMLESMKQTLDKIFTGDFDSTAEYLDPHARYIIGDKTLHGMERWKEFLDRFDHVHIHDVKLHSVRIIDGVAILDGRIDTEIIINGVRIRETVEVQIVIVKVNGRWKDERVEFK” showed a protease stability score of 0.13.

“DEEKKLSDFAFRLLEENLRTGNEDDIRRYADPSVKIEVGDKTIHGMEAVSRVITEWRVHDLKIEREEIQGNKVHIDSNIDGQVGEKREHSLLILIMVKVNGRWVIKSIRIH” registered a protease stability score of 0.386.

Sequence “DEEKKLYHHIWDRLRRALETGNEEELHKLADPDVRVIIGDKHFHGRDELYRLTEEIRVVITEIRLHDKDHQGDKVILDVEERVNVQVDGKETEYRFRSTLYFVKINGRWTLRRIELK” returned a protease stability score of 1.52.

Regarding “DEEKKNIERLTEILAHVIRTGDEESWERMMDPNARATQGDKVMVGRDLLEHLWRRIDVIDHVRLEPKHVHRQGDKIHIDVENEVHGTVNGVKISEKHKEILVIYKFDGRWHFHSIEIT”, the protease stability score turned out to be 0.064.

“DEEKKQVKDMMELYFRLFVTGNEEILTHLADPDTRIEIDGVSRVGMEEFKRMLEEYLKRLGADHIELRHWDIKFFNGRAINRLHIHIHYGDKSEDVRVTLILEKIDGRWRNRSEHREVG” yielded a protease stability score of 0.771.

On to “DEEKKSSDIAIHESLRVLKTGDEHDISEMMDPHVRIDINGREIIGMELASEIHHEIMNRIKNVRIEVKDRKLVNGQIILRGELRWNGQTVELEVTLKKINGKWWMESLHVR”, for which the protease stability score turned out to be 0.606.

In the case of “DEEKKVAMELAILLFHLWLTGDEETERRLADPDTRMDVDGKDIIGREELSKVWERILKEMRFDRWEVDRVDVVNGQVHLHGHIRGKYNGKEETREIEITINIVNGRLKSVHFNLR”, the protease stability score amounted to 1.87.

In turn, “DEEKKVAQTFLELLYRAIHTGDEDEIRRMMDPNYRMEINGKEFHGREDIVHRLVRIEKHLGFKHFHIKDMRTVGDKIDLHTEVIIGDFRWDVHIHIEKVNGRWLQTERRIE” gave a protease stability score of 0.521.

Take “DEEKNLIIELVHLFLVAFWTGNEELLRHLADPDVRFEIDGREHHGREELEKHLEHWWMKIEHIEEKEIRVIDGRVHIDGHVRGTLIINGRENRISYDVEIHAEVIDGRFKYVKVKQK”: the protease stability score is 2.48.

“DEEKQDMDTAIKIFVEEYKTGDEENLLRNMDPEARVRQGDKHFHGREEVWKFWRRLFHDAGLDNVNVELRHITSQGNKIEVRGVLRIGDKELDVEFILKKVDGRWLIKFILFR” returned a protease stability score of 1.91.

Regarding “DEEKRDAREFLHLLFHAMITGDEDLVRHLADPHVKLDVNGRELHGWELFLTWFKRLLEEIRLTDIDVHHIELQGNKIILDTRLHVRVGDKEVDIHTEFHVVKVNGKWRLKTMRTE”, the protease stability score stood at 2.61.

Regarding “DEEKRDVDDAKEVWDRIFKTGDEHQLERNFDPNVRQHIDGREHVGREEFRKEFHKILLLLGVKHLRIEFHDEEYQGDKIILRGTLFFEVNGRIEIWIVTIIARKVNGQWLVHTVHHN”, the protease stability score was 0.425.

“DEEKRFHHKLLRLFLESFLTGDWRLWYKLADPNARFHAPNHESHGREEVVEMIFKWLKQYDHVEIRIHDVRYYNGQIRMDVELHFRQGDKETSTKLDLILIVVDGRITEVHFDVR” registered a protease stability score of 0.916.

“DEEKRHDEKLVEDFIHNVLTGDWEKLLRNMDPHARIHVDVGNFREERVGREDWIETLARRKNARFHIESYRIYNGQVDMEVRIEQGDKEHKFKLIIKFVDGVVRSISMQVE” gave a protease stability score of 1.26.

In the case of “DEEKRHHDEWRQFFLDSIKTGNWFELLKMIDPNTKILINGKEFHGRDAMHHFLTELRRRVDHLERFDIHHIDIQGNKAFDDTRLEGRINGVETHIDLLLISTKVNGVWYLKSVELR”, the protease stability score was 2.13.

Sequence “DEEKRHSDEIIEEWVRSLITGDEKRIRELHDPTTLLNNENEKYHGMEIATELRRRIRENMGIKHSEVRVHDIEWQGDKITIYGRLILRFNGKEVEHELLIVATKINGRWVLRSMRIE” displayed a protease stability score of 1.48.

Consider “DEEKRLLEEAARHMVDSWRTGDEEVIERMMDPHDKLILYINGVNFDLHGREIVSRWIKEELDEIRIRINVEDIKVFNGVAFVDGELRVEINGREKRVKEEIILFIIDGRLKSHEIRRH”, for which the protease stability score came out at 1.23.

The sequence “DEEKRRASELIIHLWHNFLTGNEDRFRELFDPNVKAKLDVGDKSVDHIGRDHVLDWLRLVRHEIRIHHYEHKRERVYGDKWESDGHVDGEFNGRRTETHFEIILVIIDGKLHFLILNFH” registered a protease stability score of -0.076.

For the sequence “DEEKRRSHELADLWWEMLETGDWDRTKNLMDPDTRLHIGDKEDHGMENFYRFRKDFESQFPNMRIELKSHRVQGDFFEIKGKINFNGRLVEAEIRVKIVDGRLKEIHVHIK”, the protease stability score worked out at 0.821.

With “DEEKTIHNHLMELVVRAFLTGDEELWSNLADPDTKEIIDGKTNVGREEVAKFWKDLVHKFKNARWHITIKRVDVIDGQVRQNSHLEIRYGDKHFHLETEDHLYVINGRLKQFEFRVN”, the protease stability score was 1.18.

The sequence “DEELEMLRRFWEDLLHSAKTGDEELWERLADPNVRVIINGKLFHGRELASHALRELFERVDVIKDVKITDEKRQGDKIHLDIRVHNHYNGKFEDNDLHIVLVKVDGKWFLKSVEFR” gave a protease stability score of 2.12.

As for “DEELHHQERLLREFLHAEFTGDEDKLRHLADPRTRSDLEFENVEIVLHGMDEHVKWWEELGFKIDEMRISRIDVVGNFIILDTRVRGHINGQETHFEHHIIINTINGKIHSIRVHTK”, the protease stability score worked out at 0.735.

As for “DEELKALEDLSKKEIEAHLTGDEDTLVQLADPNMKILYNGREFHGWNVWKKISSKMIEEMRLRRVELEHVHVINGQIDSHGILDVEVNGRRVKERMHIVMLKVNGRWLIHSVEYR”, the protease stability score is 1.27.

Consider “DEELNEWEEWMRRAMKADETGDEDTVTHMLDPNVKFDIDGVELVGREEFIRFFRELRISFHHFKFDHIRDINGRVRVEGTVHLEIIIGEFRHRDDRRTERIELKINGRWYIHSMKIG”, for which the protease stability score is 1.18.

Take “DEEMQLAEEMSRKFLHNWHTGDWRIMSHLIDPDVKIIIVVGDKRIELHGRENFVKEIIRWLHHLRETDRRVDHLRIQGDKAHVRVTVHVRYGDKTMDLDEDIRILVVNGKIHSIEIIQV”: the protease stability score amounted to 1.02.

As for “DEENDLMLEMAFKFMHDWLTGDFDKETKLADPDVKYDVGEFRFHGREEVTKWLEDMERSLGIDHQFLNIHDLKVQGDKVHIKGELVLIVNGRKETRRVDLHFEIVDGRMRKVTIEKR”, the protease stability score was determined as 1.

On to “DEENEHAKHLMRELIKSIITGDEEMIDHLADPNMRLRVGDKEWHGREEIQHWLRRLVEEARIHDVELTSVRTIGDKVILDTRVDIKQGDKRKIITLIIIVQKFDGRWIIEEIRIH”, for which the protease stability score was 2.57.

Regarding “DEENEHSEKISEEVLHALHTGDWNRLAHLADPHTLLIIEYGDKEIVNHGWEVFVKWILDVFRKVKNIKVHIRDSKVIGDKIHLDVEIHFNGRTTTVHIDITIIDGRLHSIHINHK”, the protease stability score was determined as 1.8.

In turn, “DEENEILRELHRELVEAWLTGDEELLRRLHDPDVRVHIGDKDLVGMEQMIEDIRFWLRRFDHLRIHIHRVRAINGVIHVDGELQLFQGDKSIRHQVIIELEVVNGRIKNTKFSTI” had a protease stability score of 1.4.

Sequence “DEENERVHQALRDWRHIHRTGDEESTRHNMDPNARLDVNGVEVHGMEKVSEMFVELRIEHLHLERVHTQGEKVEVHTHVEVRQGDKRQEVKVIIFYIKINGRWFVERFEIH” displayed a protease stability score of 0.85.

Turning to “DEENHHTREIFKMTLKEVFTGNEEMTTRLLDPHVRVQVGDKTIHGWKHFTHIFFRLRHEFGVDHVQLRHLEIIGNKAVIHFSVYVGEWTYEFTIHALKVNGRWVLESLEVHQI”, the protease stability score is 1.5.

With “DEENKHLKEIARRFVEDWETGDEDSLKHMLDPHARVVINGVEVHGREEIIKLFREIFHHIRIDHITVNTVITVNGVAHSHIHIRVDINGQERRHNTELIFVFVDGQVSQIKFETE”, the protease stability score was determined as 1.24.

Turning to “DEENKSMEEMIRLLTEALRTGDFELIHHLADPRMRILIGDKELHGWESWAQFVVKLGVKHTRIQIDDFRIIDGRINLHTHMEIDIDGRRTSSHTHMETIKVDGRWLITVLKIR”, the protease stability score is 1.1.

For “DEENKVLEHMIRLIHHDRSTGDEKVLLKLFDPHARFIYHYGDKEIHLHGRKEITDLLVKLHRHIRVDRLHIDHWEFHGDKMHIDHTTRMNVNGREMETRIDLIITIIDGVIHSIEIRQR”, the protease stability score is 1.19.

“DEENNIVKLLFHLYVRAIETGDWKTLEKLADPNYRTIFDGKDLHGREHYMRWVRELRVEDIKLNHIHMQGDKLSIDGEIDVRVGDKETRFEVHIIAEKINGRWILRSSIID” yielded a protease stability score of 1.82.

The sequence “DEEQEILKEMAKEILHMLQTGDWKRFLELADPNVKNIVNGREVHGREIVVEYIRKMGIDHHILHDVHIQGDKIHIHGTLEVNGKRIEVEIEIVVVNGRVKMIIFILK” yielded a protease stability score of 2.05.

The sequence “DEEQEIMEHILEELLRIDWTGDEHVLERLLDPNMQLEFNGVRLVGMEEVQRWLRRFLTEIRIHDFKVHDFHSFNGRLHSDVEVDFQVNGQRHITRVRLNLEVINGVVHRVEVRHE” showed a protease stability score of 2.17.

“DEEQELLLRIFERWLEFLLTGDEDTMHRLFDPDVKSRIGDFNHHGRELVLEAHQWFLKHARLKEFIRRDIHAINGRINMKGDVRVDVNGQEWEDHIRIHLVVVNGKMREIHIEEK” returned a protease stability score of 1.38.

Sequence “DEEQELTEMVFRIIKRLNETGNEEELRRNADPHVRLDWNGVHYHGREVYDHVWNMLGFEIKDTRIRDIRMQGEKIFVDGERRGNINGRTIDTRIIIIIIAVNGRMKEIVIRDL” showed a protease stability score of 1.3.

“DEEQHRMEEELRKMFEHLFTGDFKWLHKNVDPNARLDIGDKHVHGREAMVELIIRHVESLGVDHVKIRHVEVQGEKIEIRGESKVGDWKFSHHINVIVVDGVHKHFRIENR” registered a protease stability score of 0.684.

For “DEEQKAADRVNQLHTESMLTGDEDEFKHLADPNTKFLINGVEFHGRDTLHRWLSEIRLHHHHFEVKHLNFYGDFVEVEGHVRLVFHVNGRRIDVSTRVRWIIEKVDGRWYVRQIHIN”, the protease stability score came to 1.68.

Turning to “DEEQKEALHFLENLVRSWITGDEETLKRLFDPHYRVHAENRELHGWEDVIHTAVRESEEIRLHHVKIEHLEFVDGQIFIHLNFDIDINGRREHVHTHVILLKINGRWILTKIEFH”, the protease stability score came out at 1.38.

Sequence “DEEQNHFFESIKELTHSWRTGDEERVTKLADPNVRLEINGRDIVGMERFSKLMIELRVHDLKIHRIRVVNGKVESDIEMHIHQGDKHSVTETHIFARKVDGKWILESIRIG” had a protease stability score of 1.07.

The sequence “DEEQQDLIEVVNRYLRAVLTGDEDDLRELLDPHYRIRIGDKEFVGWKEFIRHVREARYTIHRWSVDSVEIIGDKVILYGELDGIEKVNGKTIKKRFEVIFYINKIDGRWHFKHIEFH” returned a protease stability score of 2.29.

“DEEQRHAHKIVDRLLELIMTGDEDDLYRLADPNTRIDINGKKFHGMDFWFHLLRRVDHFEVEDFSLKRSDRVDGVAELDHRTTIRVIIGDKTIRLEIRHRMWVVKVDGRWKIEEVVIR” showed a protease stability score of 1.04.

For “DEEQRVEEEMAEMQRLWHETGDEESIQKNLDPRTRIVIHINGKEIRLHGREAWLKEVRRLGVKYLRIEDMEVVDGRVHARIHYTVNGVKIRIRVEFYIVDGRMEEIRRHWE”, the protease stability score was found to be 0.432.
